Broadly, the koff is a measure of how fast the partners let go of each other.

The text below walks through data of patent US20250129168A1.

Substitutions are numbered along the chain they refer to.

Test [1] deals with recombinant human-Dectin-1 mouse Fc fusion (human) (UniProt Q9BXN2). Description: biosensor, Fab, first K dis column.
The target is the same in test [2]. Description: biosensor, Fab, Ave of three.
For test [3] the target is unchanged. Description: biosensor, Fab, Ave K dis (n = 3); repeats Table 3.
Test [4] has the same target. Description: biosensor, Fab, second K dis column.
Test [5] has the same target. The experiment in a line: biosensor, Fab, third K dis column.
Test [6] has the same target. The experiment in a line: Octet BLI, response at X. (In general: Biolayer interferometry detects binding as a change in optical thickness at a sensor tip.)
For test [7] the target is unchanged. Description: Octet BLI, delta between the two X values.

B1: 2M24A.23 hFab H1 (Fab, V domains shown)
VH: QVQLVQSGAEVKKPGASVKVSCKSSGYTFTDYYIHWVRQAPGQGLEWMGWINPNSGDTNYAQKFQGRVTMTRDTSISTAYMELSRLRSDDTAVYYCARNSGSYSFGYWGQGTLVTVSS
VL: DIQMTQSPSSVSASVGDRVTITCRASQGISSWLAWYQQKPGKAPKLLIFGASSLQSGVPSRFSGSGSGTDFTLTVSSLQPEDFATYYCQQAYSFPFTFGPGTKVDIE
Take B1: the koff is 0.00841 s⁻¹ in test [1]; 0.00396 s⁻¹ in test [2]; 0.00396 s⁻¹ in test [3]; 0.00143 s⁻¹ in test [4]; 0.00204 s⁻¹ in test [5].

B2: 2M24A.1.16 (Fab, V domains shown)
VH: B1 VH with V68I, M81L, Y94F, S100A
VL: B1 VL
On to B2, for which, in test [6], the X = 290 is 0.12 and the X = 350 was 0.114. The delta in test [7] was found to be 5%.

B3: 2M24A.1.11 hFab (Fab, V domains shown)
VH: B1 VH with D31A, V68I, M81L, Y94F
VL: B1 VL
Regarding B3, in test [6], the X = 340 came to 0.499 and the X = 470 was 0.418. In addition, the delta in test [7] turned out to be 16%.

B4: 2M24A.1.2 hFab (Fab, V domains shown)
VH: B1 VH with D57A, V68I, M81L, Y94F
VL: B1 VL with Y92A
For the molecule B4, in test [6], the X = 340 worked out at 0.331 and the X = 470 stood at 0.006. For the same molecule, the delta in test [7] came to 98%.

B5: 2M24A.1.19 (Fab, V domains shown)
VH: B1 VH with V68I, M81L, Y94F, S104A
VL: B1 VL
As for B5, in test [6], the X = 290 came out at 0.126 and the X = 350 was found to be 0.0983. Further, the delta in test [7] is 22%.

B6: 2M24A.1.18 (Fab, V domains shown)
VH: B1 VH with V68I, M81L, Y94F, S102A
VL: B1 VL
In the case of B6, in test [6], the X = 290 was 0.138 and the X = 350 was found to be 0.124. Further, the delta in test [7] is 9%.

B7: 2M24A.1.12 hFab (Fab, V domains shown)
VH: B1 VH with D57A, V68I, M81L, Y94F
VL: B1 VL
B7: in test [6], the X = 340 was 0.49 and the X = 470 was 0.399. Moreover, the delta in test [7] is 19%.

B8: 2M24A.1.22 (Fab, V domains shown)
VH: B1 VH with V68I, M81L, Y94F, Y107A
VL: B1 VL
For B8, in test [6], the X = 290 amounted to 0.131 and the X = 350 was determined as 0.112. For the same molecule, in test [7], the delta is 15%.

B9: 2M24A.1.13 hFab (Fab, V domains shown)
VH: B1 VH with V68I, M81L, Y94F, N99A
VL: B1 VL
For B9, in test [6], the X = 340 is 0.028 and the X = 470 was found to be 0. Also, the delta in test [7] turned out to be 100%.

B10: 2M24A.1.8 hFab (Fab, V domains shown)
VH: B1 VH with V68I, M81L, Y94F, N99A
VL: B1 VL with Y92F
Consider B10, for which, in test [6], the X = 340 was 0.042 and the X = 470 came to 0. Besides, the delta in test [7] came to 100%.

B11: 2M24A.26 hFab H4 (Fab, V domains shown)
VH: B1 VH with I34M
VL: B1 VL
B11: the koff was 0.0053 s⁻¹ in test [1]; 0.00264 s⁻¹ in test [2]; 0.00264 s⁻¹ in test [3]; 0.00102 s⁻¹ in test [4]; 0.0016 s⁻¹ in test [5].

B12: 2M24A.1.14 hFab (Fab, V domains shown)
VH: B1 VH with V68I, M81L, Y94F, Y103A
VL: B1 VL
On to B12, for which, in test [6], the X = 340 turned out to be 0.106 and the X = 470 turned out to be 0. Further, in test [7], the delta came out at 100%.

B13: 2M24A.1.20 (Fab, V domains shown)
VH: B1 VH with V68I, M81L, Y94F, F105A
VL: B1 VL
In the case of B13, in test [6], the X = 290 worked out at 0.0981 and the X = 350 was determined as 0.0215. For the same molecule, the delta in test [7] came out at 78%.

B14: 2M24A.1.21 (Fab, V domains shown)
VH: B1 VH with V68I, M81L, Y94F, G106A
VL: B1 VL
For B14, in test [6], the X = 290 is 0.125 and the X = 350 is 0.114. In test [7], the delta came to 8%.

B15: 2M24A.1.17 (Fab, V domains shown)
VH: B1 VH with V68I, M81L, Y94F, G101A
VL: B1 VL
Regarding B15, in test [6], the X = 290 turned out to be 0.131 and the X = 350 was 0.129. Further, in test [7], the delta stood at 1%.

B16: 2M24A.1.3 hFab (Fab, V domains shown)
VH: B1 VH with V68I, M81L, Y94F, N99A
VL: B1 VL with Y92A
For B16, in test [6], the X = 340 came to 0 and the X = 470 was 0.

B17: 2M24A.1.1 hFab (Fab, V domains shown)
VH: B1 VH with D31A, V68I, M81L, Y94F
VL: B1 VL with Y92A
Take B17: in test [6], the X = 340 was 0.305 and the X = 470 was determined as 0.006. Also, the delta in test [7] is 98%.

B18: 2M24A.25 hFab H3 (Fab, V domains shown)
VH: B1 VH with S24A
VL: B1 VL
B18: the koff in test [1] turned out to be 0.00765 s⁻¹; in test [2] it was 0.0037 s⁻¹; in test [3] it was 0.0037 s⁻¹; in test [4], 0.00132 s⁻¹; in test [5] it was 0.00214 s⁻¹.

B19: 2M24A.1.7 hFab (Fab, V domains shown)
VH: B1 VH with D57A, V68I, M81L, Y94F
VL: B1 VL with Y92F
For the molecule B19, in test [6], the X = 340 stood at 0.51 and the X = 470 is 0.398. Also, the delta in test [7] is 22%.

B20: 2M24A.1.9 hFab (Fab, V domains shown)
VH: B1 VH with V68I, M81L, Y94F, Y103A
VL: B1 VL with Y92F
Take B20: in test [6], the X = 340 worked out at 0.018 and the X = 470 came to 0. Moreover, the delta in test [7] turned out to be 100%.

B21: 2M24A.1.4 hFab (Fab, V domains shown)
VH: B1 VH with V68I, M81L, Y94F, Y103A
VL: B1 VL with Y92A
Regarding B21, in test [6], the X = 340 came to 0 and the X = 470 worked out at 0.

B22: 2M24A.1.15 (Fab, V domains shown)
VH: B1 VH with V68I, M81L, Y94F, R98A
VL: B1 VL
Take B22: in test [6], the X = 290 is 0.082 and the X = 350 was determined as 0.0314. Also, the delta in test [7] stood at 62%.

B23: 2M24A.1.6 hFab (Fab, V domains shown)
VH: B1 VH with D31A, V68I, M81L, Y94F
VL: B1 VL with Y92F
As to B23, in test [6], the X = 340 came out at 0.493 and the X = 470 was determined as 0.39. The delta in test [7] is 21%.
